From patent US9023604 (IBA, dated 2015)
Numbering of substitutions follows the chain as printed. Names and notes keep the numbering of the source.

B1: 13B8.2 Fab fragment (variable domains of murine anti-CD4 antibody 13B8.2, human CH1 gamma1 and human kappa constant domains), heavy chain fused to One-STrEP-tag (Fab, V domains shown)
VH: QVQLKQSGPGLVQPSQSLSITCTVSGFSLTTFGVHWVRQSPGKGLEWLGVIWRSGITDYNVPFMSRLSITKDNSKSQVFFKLNSLQPDDTAIYYCAKNDPGTGFAYWGQGTLVTVSA
VL: DIQMTQSPASLSASVGETVTFTCRASEMIYSYLAWYQQKQGKSPQLLVHDAKTLAEGVPSRFSGGGSGTQFSLKINTLQPEDFGTYYCQHHYGNPPTFGGGTKLEIKR
notes: Expressed in the E. coli periplasm; Stained as a monomer or multimerized on Strep-Tactin PE; also called CD4 wt (13B8.2); 13B8.2 wildtype (wt) Fab fragment
B2: Mutant 13B8.2 Fab fragment with Phe at position 100 of the heavy chain mutated to Ala, heavy chain fused to One-STrEP-tag (Fab, V domains shown)
VH: B1 VH with F104A
VL: B1 VL
notes: also called CD4 mutant 1 (F100A); F100K-H
B3: Mutant 13B8.2 Fab fragment with His at position 91 of the light chain mutated to Ala, heavy chain fused to One-STrEP-tag (Fab, V domains shown)
VH: B1 VH
VL: B1 VL with H91A
notes: also called CD4 mutant 4 (H91A); mutant 4
B4: Mutant 13B8.2 Fab fragment with His at position 35 of the heavy chain mutated to Ala, heavy chain fused to One-STrEP-tag (Fab, V domains shown)
VH: B1 VH with H35A
VL: B1 VL
notes: also called CD4 mutant 3 (H35A); mutant 3
B5: Mutant 13B8.2 Fab fragment with Tyr at position 92 of the light chain mutated to Ala, heavy chain fused to One-STrEP-tag (Fab, V domains shown)
VH: B1 VH
VL: B1 VL with Y92A
notes: also called CD4 mutant 2 (Y92A); mutant 2

What follows are binders tested against T1, CD4 cell surface receptor molecule on peripheral blood mononuclear cells (PBMCs) (human, UniProt P01730 26-458) (assay: flow cytometry, PBMCs, live CD3+ T cells; column 'Fab multimer -> D-biotin -> Fab multimer': second Fab-multimer staining after D-biotin and washing).
T1 construct: whole, on cells; also called CD4 receptor molecule
From the text: (§1) Peripheral Blood Mononuclear Cells (PBMCs) were stained with anti-CD4 Fab fragments (receptor binding reagent) fused to a sequential arrangement of two Strep-tag® sequences (commercially available under the trade name "One-STrEP-tag"; binding partner C) and multimerized on phycoerythrin labeled Strep-Tactin® (Strep-Tactin PE; IBA GmbH, Göttingen, Germany; multimerization reagent comprising at least 2 binding sites Z for the binding partner C) and analyzed either before (second column) or after treatment with D-biotin (third column). Remaining Fab-monomers (i.e. Fab fragments used as receptor binding reagent) on the target cell surface were then detected after subsequent washing steps to remove […] using Strep-Tactin PE alone (without bound Fab fragments) (fourth column). Fab-multimer staining after the reversible staining described above of the cells was performed again (fifth column) to control completion of biotin removal which otherwise would have hampered the staining of remaining Fab-monomers with Strep-Tactin PE alone (without bound Fab fragments) as shown in the fourth column and which thus would have led to a wrong conclusion of the experiment. Alternatively, cells were incubated with monomeric Fab-fragments, washed and subsequently analyzed after staining with Strep-Tactin® PE (first, i.e. left-most column). Live CD3^+ T cells are shown. Numbers in the dot plots indicate the percentage of cells within gates.
(§2) For staining and dissociation experiments, 5 ×10^6 PBMCs were incubated with the respective anti-CD4 Fab-multimer-Strep-Tactin® PE complexes or with the corresponding Fab-monomers (the latter not complexed with Strep-Tactin® PE).

Binder | percentage of cells within gate [%]
B1 | 18.8
B2 | 19.2
B3 | 20
B4 | 19.3
B5 | 18.8

The binders below were run against T1, CD4 cell surface receptor molecule on … (assay: flow cytometry, PBMCs, live CD3+ T cells; column 'Fab multimer -> D-biotin': Fab-multimer staining analysed after treatment with D-biotin).
Protocol: (§3) Remaining Fab-monomers (i.e. Fab fragments used as receptor binding reagent) on the target cell surface were then detected after subsequent washing steps to remove […] using Strep-Tactin PE alone (without bound Fab fragments) (fourth column). Fab-multimer staining after the reversible staining described above of the cells was performed again (fifth column) to control completion of biotin removal which otherwise would have hampered the staining of remaining Fab-monomers with Strep-Tactin PE alone (without bound Fab fragments) as shown in the fourth column and which thus would have led to a wrong conclusion of the experiment. Alternatively, cells were incubated with monomeric Fab-fragments, washed and subsequently analyzed after staining with Strep-Tactin® PE (first, i.e. left-most column). Live CD3^+ T cells are shown. Numbers in the dot plots indicate the percentage of cells within gates.
(§4) For staining of a CD4 receptor molecule specific target cell population in a mixture of cells, Strep-Tactin® labeled with phycoerythrine as a fluorescent label (IBA GmbH, Göttingen, Germany) was used as multimerization reagent together with the monomeric CD4 binding Fab-One-STrEP fragment of the variants of the antibody 13B8.2 (that served as receptor binding reagent) as described below. For FACS analysis 5×10^6 PBMCs were incubated with Fab multimers consisting of 0.2 μg Fab-fragment (comprising binding site B) equipped with the One-STrEP-tag (binding partner C) as receptor binding reagent and 0.75 μg Strep-Tactin® PE (IBA GmbH, Göttingen, Germany) as multimerization reagent using the protocol below. In addition, after FACS separation, the multivalent complexes were disrupted in a portion of each of the stained cells by addition of biotin as described below. Control antibody stainings were performed by concomitant application of the respective antibody: anti-CD4 (OKT4) (from eBiosciences, San Diego, Calif., USA). After the staining procedure of the present invention, cells were subsequently stained with propidium iodide for live/dead discrimination.
as §2

Binder | percentage of cells within gate [%]
B1 | 0.041
B2 | 0.014
B3 | 0.017
B4 | 0.041
B5 | 0.034

What follows are binders tested against T1, CD4 cell surface receptor molecule on … (assay: flow cytometry, PBMCs, live CD3+ T cells; column 'Fab monomer -> ST-PE': cells incubated with monomeric Fab, washed, then stained with Strep-Tactin PE; y axis CD4 Fab-multimer / Fab-monomer, x axis CD8).
From the text: as §1
(§5) For staining and dissociation experiments, 5 ×10^6 PBMCs were incubated with the respective anti-CD4 Fab-multimer-Strep-Tactin® PE complexes or with the corresponding Fab-monomers (the latter not complexed with Strep-Tactin® PE). […] After D-biotin-mediated disruption of the multimeric complexes (FIG. 2, third column) and subsequent washing, the cells were probed for residual surface-bound Fab fragments by the addition of Strep-Tactin® PE alone (without bound Fab) (FIG. 2, fourth column).

Binder | percentage of cells within gate [%]
B1 | 20
B2 | 19.9
B3 | 0.0039
B4 | 0.007
B5 | 0.0022

What follows are binders tested against T1, CD4 cell surface receptor molecule on … (assay: flow cytometry, PBMCs, live CD3+ T cells; column 'Fab multimer': Fab multimerized on Strep-Tactin PE).
Protocol: as §3, §4
Protocol for Staining of 5×10^6 Cells with Receptor Binding Reagent and Multimerization Reagent 1. 0.75 μg Strep-Tactin PE were incubated with 0.2 μg monomeric CD4 binding Fab-One-STrEP fragment for 30 minutes at 4° C. in the dark. 2.

Binder | percentage of cells within gate [%]
B1 | 23.3
B2 | 23
B3 | 23.1
B4 | 23.4
B5 | 14.7

The binders below were run against T1, CD4 cell surface receptor molecule on … (assay: flow cytometry, PBMCs, live CD3+ T cells; column 'Fab multimer -> D-biotin -> ST-PE': after D-biotin and washing, remaining Fab monomers detected with Strep-Tactin PE alone).
From the text: as §1, §5

Binder | percentage of cells within gate [%]
B1 | 16.1
B2 | 16.4
B3 | 0.00284
B4 | 0.019
B5 | 0.0017
